{"source": "paper PMC7784741", "about": "(Protein Science : A Publication of the Protein Society, 2020)", "target": "YAP-binding domain of human TEAD4, TEAD4 217-434 (human, UniProt Q15561 217-434, biotin (N-biotinylated Avi tag))", "sequence (Q15561 217-434)": "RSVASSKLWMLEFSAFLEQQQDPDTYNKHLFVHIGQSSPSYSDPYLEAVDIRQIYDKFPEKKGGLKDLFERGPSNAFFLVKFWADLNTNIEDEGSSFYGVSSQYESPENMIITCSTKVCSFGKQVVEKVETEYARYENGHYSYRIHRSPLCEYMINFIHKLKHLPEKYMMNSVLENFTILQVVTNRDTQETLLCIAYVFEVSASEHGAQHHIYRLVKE", "experiment": "AlphaScreen or HTRF", "data": [{"binder": "DSETDLEALFNAVMNPKTANVPQTVPMRLRKLPDSFFKPPE", "note": "[YAP 60-100 (partner of TEAD4 in the TR-FRET assay)]", "values": [{"measurement": "binding result", "value": "binds"}]}]}
